Test results taken from article PMC4655416, “The activity of protein phosphatase 5 towards native clients is modulated by the middle- and C-terminal domains of Hsp90” (Scientific Reports, 2015).
Values joined by “and” are separate entries in the source; they are usually repeats but may differ in a detail not shown here. Equal entries are not always repeated.

Tests used:
[1] = biological target: T1, C. elegans Hsp90 (CeHsp90), full-length (C. elegans, UniProt Q18688 1-702); test: cell-based or functional assay
[2] = biological target: T2, CeHsp90-derived MEEVD-containing peptide AEEDASRMEEVD (C. elegans); test: cell-based or functional assay
T2 peptide: AEEDASRMEEVD

[3] = biological target: T1, C. elegans Hsp90 (CeHsp90), full-length; test: AUC; sedimentation velocity with UV/VIS absorbance optics (OD280); PPH-5 titrated to a constant concentration of CeHsp90 (4 μM) or CeHsp90-MC (3.5 μM); global fit to sequential binding of a first and second PPH-5; conditions: both partners purified

- kcat of PPH-5 towards the model peptide KRpTIRR (50 μM) with 3 μM CeHsp90 [1]: 0.133 s⁻¹
- pNPP turnover by PPH-5 in presence of 60 μM peptide … [2]: ~6 fold
- Kd [3]: ~1000 nM and 1000 to 3000 nM
- stoichiometry N [3]: 2 PPH-5 per CeHsp90 dimer
B1: protein phosphatase 5 from C. elegans (PPH-5) (enzyme, UniProt Q9NES8 1-496, looked up)
chain: MAATITDDIVATVLESIEEKSYEDEKEKAGMIKDEANQFFKDQVYDVAADLYSVAIEIHPTAVLYGNRAQAYLKKELYGSALEDADNAIAIDPSYVKGFYRRATANMALGRFKKALTDYQAVVKVCPNDKDARAKFDECSKIVRRQKFEAAISTDHDKKTVAETLDINAMAIEDSYDGPRLEDKITKEFVLQLIKTFKNQQKLHKKYAFKMLLEFYNYVKSLPTMVEITVPTGKKFTICGDVHGQFYDLCNIFEINGYPSETNPYLFNGDFVDRGSFSVETIFTMIGFKLLYPNHFFMSRGNHESDVMNKMYGFEGEVKAKYTQQMCDMFTETFCWLPLCHLINEKIFVCHGGLFKEDGVTLEDIRKTDRNRQPPDEGIMCDLLWSDPQPINGRSPSKRGVGCQFGPDVTSKWCETNGIEYVVRSHEVKPEGYEMHHNGQCFTVFSAPNYCDQMNNKGAFITITGDNLTPRFTPFDAVPHPKLPPMAYANSLFGFN
notes: protein phosphatase 5 (PPH-5) of C. elegans; also called the phosphatase; source: E. coli BL21-CodonPlus(DE3)-RIL, purified (Ni-NTA, Resource Q, gel filtration); not shown: His6, N-terminal, kept
